Laboratory results from patent US9994813, “Role for the perlman syndrome exonuclease Dis3l2 in the Lin28-let-7 pathway” (Children's Medical Center Corporation).

Experiments:
Lin28A = biological target: T1, Lin28A (UniProt Q8K3Y3 Q8K3Y3:1-209); experiment: EMSA; details: tags: 6xHis, E. coli; label: 5'-32P; hairpin with 3' oligoU tail
T1 sequence: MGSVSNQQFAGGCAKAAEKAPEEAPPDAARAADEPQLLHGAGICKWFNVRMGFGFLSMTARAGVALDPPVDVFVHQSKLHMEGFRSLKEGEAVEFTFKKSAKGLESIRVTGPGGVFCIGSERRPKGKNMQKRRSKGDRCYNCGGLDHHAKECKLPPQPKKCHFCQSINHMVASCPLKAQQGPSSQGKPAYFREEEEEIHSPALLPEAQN
Experimental: (§1) EMSA experiments were performed as described previously. Briefly, 1 nM of the indicated radiolabeled synthetic RNA was incubated in the binding buffer (50 mM Tris pH 7.6, 100 mM NaCl, 10 mM […], 1 unit/µl RNaseOUT) with varying concentrations of catalytically inert recombinant 6x-His Dis3L2 or recombinant 6x-His Lin28 in the absence of competitor RNA. Nucleoprotein complexes were resolved by 4-20% non-denaturing TBE gel electrophoresis (Biorad, #345-0059) and visualized by autoradiography.

[1] = biological target: T2, Dis3l2 (recombinant 6xHis) (Mus musculus, UniProt Q8CI75 Q8CI75:1-870); experiment: cleavage_in_vitro; relative RNA stability difference versus non-uridylated; 0.05 mM MgCl2, 50 mM KCl, pH 7.5, 37 C; details: tags: 6xHis, pETDuet-1, E. coli; label: 5'-32P; hairpin with 3' oligoU tail
T2 sequence: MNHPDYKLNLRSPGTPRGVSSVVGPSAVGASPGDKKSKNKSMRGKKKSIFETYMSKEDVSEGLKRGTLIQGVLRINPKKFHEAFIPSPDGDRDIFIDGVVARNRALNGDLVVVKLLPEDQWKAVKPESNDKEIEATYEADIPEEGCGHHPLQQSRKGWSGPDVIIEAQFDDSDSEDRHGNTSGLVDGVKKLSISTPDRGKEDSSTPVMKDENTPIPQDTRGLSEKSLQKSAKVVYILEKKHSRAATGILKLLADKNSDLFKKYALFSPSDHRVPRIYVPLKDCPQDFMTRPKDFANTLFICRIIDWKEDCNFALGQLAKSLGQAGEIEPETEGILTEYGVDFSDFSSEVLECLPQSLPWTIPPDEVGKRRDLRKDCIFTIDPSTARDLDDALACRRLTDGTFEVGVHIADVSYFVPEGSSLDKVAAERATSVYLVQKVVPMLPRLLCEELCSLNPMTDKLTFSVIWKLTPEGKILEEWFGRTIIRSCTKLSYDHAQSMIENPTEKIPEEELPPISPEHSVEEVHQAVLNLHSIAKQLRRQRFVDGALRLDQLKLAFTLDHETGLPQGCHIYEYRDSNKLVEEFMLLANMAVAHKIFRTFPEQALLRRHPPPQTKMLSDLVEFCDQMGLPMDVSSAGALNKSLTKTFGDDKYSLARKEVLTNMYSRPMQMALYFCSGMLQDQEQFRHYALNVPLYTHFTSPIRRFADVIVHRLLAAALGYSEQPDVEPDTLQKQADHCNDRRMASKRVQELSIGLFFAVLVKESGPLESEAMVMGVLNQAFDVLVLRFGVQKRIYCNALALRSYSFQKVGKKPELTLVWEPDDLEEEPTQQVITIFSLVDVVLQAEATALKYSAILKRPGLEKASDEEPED
Experimental: RNA degradation assays were performed in a total of 20 µl reaction using 6.25 nM 5' end-labeled pre-miR-21, pre-let-7a-1, or pre-let-7a-1+14U RNA (see Table 2) together with Dis3l2 and/or Lin28A. The reactions were set up in the RNA degradation buffer (20 mM HEPES-KOH pH 7.5, 50 mM KCl, 0.05 mM MgCl2, 1 mM DTT) and incubated at 37° C. for 90 minutes. For time-course assays; recombinant 6x-His Dis3l2 was incubated with radiolabeled pre-let-7a-1 or pre-let-7a-1+14U. Bands from three independent experiments were quantified using ImageJ (NIH) and plotted using Prism (Graphpad). Values were fitted to one-phase decay curves with error bars representing +/- s.d. (n=3). For Uridylation-stimulated degradation assays; in vitro uridylation assays were performed as described previously[20,26,27] except with the addition of 10 µM cold competitor uridine triphosphate and immunopurified Dis3l2 where indicated.

Dis3l2 D389N = biological target: T3, Dis3l2 D389N (Mus musculus, UniProt Q8CI75 Q8CI75:1-870, D389N); experiment: EMSA; 1 nM RNA, 50 mM Tris pH 7.6, 100 mM NaCl; details: tags: 6xHis, E. coli; label: 5'-32P; hairpin with 3' oligoU tail
T3 sequence: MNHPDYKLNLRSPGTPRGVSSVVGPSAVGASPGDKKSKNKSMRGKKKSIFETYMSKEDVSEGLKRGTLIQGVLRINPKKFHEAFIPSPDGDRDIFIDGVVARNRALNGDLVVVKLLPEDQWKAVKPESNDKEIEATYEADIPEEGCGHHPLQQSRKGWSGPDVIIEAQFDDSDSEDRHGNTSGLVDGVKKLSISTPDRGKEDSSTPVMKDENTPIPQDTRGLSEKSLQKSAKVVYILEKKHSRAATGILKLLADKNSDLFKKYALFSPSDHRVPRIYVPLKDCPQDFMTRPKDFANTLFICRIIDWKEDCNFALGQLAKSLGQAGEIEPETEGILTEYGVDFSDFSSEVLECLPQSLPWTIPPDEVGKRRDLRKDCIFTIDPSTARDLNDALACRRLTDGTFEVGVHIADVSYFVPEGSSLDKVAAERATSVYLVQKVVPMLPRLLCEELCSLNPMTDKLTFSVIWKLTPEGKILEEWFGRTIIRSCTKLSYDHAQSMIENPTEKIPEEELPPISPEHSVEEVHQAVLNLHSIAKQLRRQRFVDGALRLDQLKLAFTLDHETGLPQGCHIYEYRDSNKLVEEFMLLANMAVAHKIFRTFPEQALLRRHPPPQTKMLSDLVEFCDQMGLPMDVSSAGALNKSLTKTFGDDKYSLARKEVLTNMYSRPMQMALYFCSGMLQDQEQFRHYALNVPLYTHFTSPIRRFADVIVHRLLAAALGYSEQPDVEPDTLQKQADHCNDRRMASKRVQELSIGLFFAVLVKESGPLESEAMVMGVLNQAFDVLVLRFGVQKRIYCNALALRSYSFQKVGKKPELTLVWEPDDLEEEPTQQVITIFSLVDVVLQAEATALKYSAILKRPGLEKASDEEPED
Experimental: as §1

Dis3l2 D389N (Flag) = biological target: T4, Dis3l2 D389N (Flag) (Mus musculus, UniProt Q8CI75 Q8CI75:1-870, D389N); experiment: EMSA; retains binding though catalytically inactive; details: tags: Flag, immunopurified from V6.5 ESC; label: 5'-32P; hairpin with 3' oligoU tail
T4 sequence: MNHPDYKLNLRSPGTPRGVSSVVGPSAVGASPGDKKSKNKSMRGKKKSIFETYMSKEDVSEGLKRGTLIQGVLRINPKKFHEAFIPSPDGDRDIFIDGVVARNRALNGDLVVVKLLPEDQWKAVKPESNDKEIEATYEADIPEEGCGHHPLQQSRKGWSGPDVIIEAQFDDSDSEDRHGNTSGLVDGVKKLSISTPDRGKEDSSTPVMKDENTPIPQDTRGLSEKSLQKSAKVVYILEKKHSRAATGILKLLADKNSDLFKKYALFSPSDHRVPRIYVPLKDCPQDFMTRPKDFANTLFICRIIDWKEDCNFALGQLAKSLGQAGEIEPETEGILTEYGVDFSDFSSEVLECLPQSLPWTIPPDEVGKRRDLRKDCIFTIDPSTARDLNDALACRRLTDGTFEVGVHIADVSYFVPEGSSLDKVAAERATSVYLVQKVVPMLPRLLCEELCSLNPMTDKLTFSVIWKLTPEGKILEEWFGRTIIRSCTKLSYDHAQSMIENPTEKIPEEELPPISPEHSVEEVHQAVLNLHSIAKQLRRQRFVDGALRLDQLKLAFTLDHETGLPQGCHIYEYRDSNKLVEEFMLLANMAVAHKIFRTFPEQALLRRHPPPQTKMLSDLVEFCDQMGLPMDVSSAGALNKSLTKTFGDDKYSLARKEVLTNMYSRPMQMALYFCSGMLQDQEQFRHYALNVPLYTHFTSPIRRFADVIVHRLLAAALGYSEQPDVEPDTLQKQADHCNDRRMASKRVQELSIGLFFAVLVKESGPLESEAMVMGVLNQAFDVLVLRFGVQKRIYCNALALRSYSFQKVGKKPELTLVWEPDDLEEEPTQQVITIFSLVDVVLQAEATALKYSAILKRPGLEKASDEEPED

B1: mmu-pre-let-7a-1+14U (ssRNA)
RNA: UGAGGUAGUAGGUUGUAUAGUUUUAGGGUCACACCCACCACUGGGAGAUAACUAUACAAUCUACUGUCUUUCCUUUUUUUUUUUUUU
With B1 the binding result (Lin28A) was “binds”, the activity [1] was > 10 fold and the binding result (Dis3l2 D389N) was “binds”. B1: binds (Dis3l2 D389N (Flag)).
